Reference: PMC7495481, “Sequence specificity analysis of the SETD2 protein lysine methyltransferase and discovery of a SETD2 super-substrate” (Communications Biology, 2020)
Ends that are not written are not given here.

What was measured:
SETD2 [1] = biological target: T1, SETD2 (Homo sapiens, UniProt Q9BYW2); experiment: Protein methylation assay (non-histone proteins, GST fusions, nucleosomes, H3.1); assay type: biochemical; settings: equal amounts; 6 µM SETD2, 0.76 µM AdoMet, 3 h, 25 °C; autoradiography
T1 construct: SETD2 catalytic SET domain (amino acids 1347–1711, UniProt No: Q9BYW2); made in house; host or cells: E. coli
T1 sequence (Q9BYW2 1347-1711): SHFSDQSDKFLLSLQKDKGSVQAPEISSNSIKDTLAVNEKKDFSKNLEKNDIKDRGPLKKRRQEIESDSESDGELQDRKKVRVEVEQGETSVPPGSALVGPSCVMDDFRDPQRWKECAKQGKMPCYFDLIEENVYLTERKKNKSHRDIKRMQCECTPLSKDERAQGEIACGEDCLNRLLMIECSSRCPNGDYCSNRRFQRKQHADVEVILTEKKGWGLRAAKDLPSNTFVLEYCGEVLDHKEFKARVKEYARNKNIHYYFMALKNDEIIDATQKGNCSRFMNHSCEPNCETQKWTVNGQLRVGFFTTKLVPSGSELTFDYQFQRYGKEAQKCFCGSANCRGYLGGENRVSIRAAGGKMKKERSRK
From the text: The 9 new putative non-histone substrates of SETD2 were cloned into a pGEX-6p2 bacterial expression vector for protein expression. Six of them could be expressed and purified through glutathione sepharose beads (Table 1). For comparison, the super-substrate sequence was cloned with a […] GST-tag (ssK36-GST) to mimic the natural setting of the H3K36 site in the N-terminal tail of histone 3. Similar amounts of the purified non-histone substrate proteins and the ssK36-GST protein were loaded on an SDS-gel and stained with Coomassie BB (Supplementary Fig. 6a). Afterward protein methylation reactions were conducted using radioactively labeled AdoMet and the radioactive signal of the methyl group transfer was detected by autoradiography (Supplementary Fig. 6b). […] Next, we aimed to confirm the FBN1 methylation at the predicated target lysine K666. For this, a K666R mutation was introduced and the wildtype and mutant FBN1 proteins were purified by affinity chromatography. […]
Protein methylation reactions were performed in 40 µl methylation buffer containing 0.76 µM radioactive labeled AdoMet (PerkinElmer), approximately 20 µg of substrate protein and 6 µM SETD2 enzyme (if not otherwise indicated) for 3 h at 25 °C. […] The radioactive methylation signal was detected by a hyperfilm^TM high performance autoradiography film (GE Healthcare) at −80 °C in the dark. […]

SETD2 [2] = biological target: T1, SETD2; experiment: Western Blot detection of GST fusion methylation by SETD2 with H3K36me3 antibody; assay type: biochemical; settings: incubated with SETD2 and unlabeled AdoMet
Procedure: Supplementary Fig. 9: Control experiments related to Fig. 6c. a Validation of the detection of ssK36-GST methylation by the α-H3K36me3 antibody. The purified ssK36-GST and H3K36-GST substrates were incubated with SETD2 and unlabeled AdoMet. Afterwards, the proteins were separated by SDS-PAGE and blotted. Western Blot […]
of H3K36-GST methylation by SETD2 observed in Fig. 6a and 6b. Equal loading of the GST-tagged proteins is shown in the Coomassie BB stain of a parallel gel, equal loading of SETD2 is shown in the Ponceau S stain of the Western Blot membrane. b YFP-tagged ssK36 and H3K36 substrates were transfected into HEK293 cells together with DsRed-tagged SETD2 or DsRed empty vector (EV). The expression levels of DsRed-SETD2 and DsRed from EV were determined […]
Example of the FACS primary data for DsRed expression. d Average fraction of DsRed positive cells in three independent experiments normalized to DsRed-SETD2 + YFP-ssK36. EV, empty […]
(1 picture or pasted object on this page, not shown here)

SETD2 [3] = biological target: T1, SETD2; settings: H3K36 peptide, previously determined under the same conditions; ref [30]; cited from earlier work
SETD2 [4] = biological target: T1, SETD2; experiment: Peptide SPOT array methylation of reported SETD2 substrates; assay type: biochemical; settings: SPOT array on cellulose membrane; 0.76 µM radioactive AdoMet, 3–6 µM SETD2, 60 min, pH 9; autoradiography
Procedure: Next, the SETD2 activity was tested on peptide SPOT arrays containing fifteen amino acid long peptides immobilized on a cellulose membrane. As reported SETD2 substrates, the H3K36 (29–43), α -tubulin (33–47) and STAT1 (518–532) peptides (with the target lysine centered in each case) were included, and peptides with the corresponding target lysine mutated to alanine were used as negative controls. The peptide array was incubated in methylation buffer supplemented with SETD2 and radioactively labeled AdoMet. […] Methylation of the previously reported non-histone substrates α -tubulin and STAT1 was not detectable at the peptide level and, therefore, they were excluded from further investigation.
Peptide arrays containing fifteen amino acid long peptides were synthesized using the SPOT synthesis method[48] with an Autospot peptide array synthesizer (Intavis AG, Köln, Germany). After synthesis, the obtained membranes were pre-incubated in methylation buffer (20 mM Tris/HCl pH 9, 0.01% Triton X-100, 10 mM DTT, 1.5 mM MgCl2) for 5 min on a shaker. Thereafter, the membranes were incubated in methylation buffer supplemented with 0.76 µM radioactively labeled AdoMet (PerkinElmer) and 3–6 µM SETD2 enzyme for 60 min on a shaker. After methylation, the membranes were washed 5 times for 5 min in wash buffer (100 mM NH4HCO3, 1% SDS) and incubated in amplify NAMP100V (GE Healthcare) for 5 min. This was followed by the exposure of the membranes to a hyperfilm^TM high performance autoradiography (GE Healthcare) film at −80 °C in the dark. The films were developed with an Optimax Typ TR machine after different exposue times. For quantification the signal intensities were measured with the Phoretix^TM software and analyzed with Microsoft Excel.
Supplementary Fig. 1: SETD2 protein and catalytic activity. a Purified His6-tagged SETD2 SET domain (1347-1711) was separated on an SDS-gel and […]
stained with Coomassie BB. […]
tubulin (33-47), STAT1 (518-532) and their corresponding target lysine to alanine mutant peptides were synthesized on a cellulose membrane. The membrane was incubated in methylation buffer supplemented with radioactively labeled AdoMet and SETD2. The signal of the transferred radioactive methyl groups was visualized by autoradiography.

SETD2 [5] = biological target: T1, SETD2; settings: ref [18],[19]; cited from earlier work
From the text: SETD2 is a PKMT initially in 2005 identified to methylate H3K36[8]. So far, lysine 36 in H3 was still the best substrate known for this enzyme at the peptide level. At the protein level, H3 methylation by SETD2 is weak, but it is strongly stimulated in the context of a nucleosome as shown here by us and previously by others. […] In thi ...

For “H3K36-GST: H3K36 (29–43) sequence cloned with C-terminal GST-tag (APATGGVKKPHRYRP; also: C-terminal GST tag fusion; UniProt P68431 30-44, looked up, fragment)”, the “methylation of GST fusion proteins (in words)” value (SETD2 [1]) was “no signal was detected” and the “H3K36me3 antibody Western Blot signal” value (SETD2 [2]) was “very weak signal”.

In the case of “H3K36 peptide: H3K36 (27–43) peptide purchased from Intavis AG (KSAPATGGVKKPHRYRP; UniProt P68431 28-44, looked up, fragment)”, the Km (SETD2 [3]) is listed as 65 µM.

B1: STAT1: known non-histone substrate of SETD2, methylated at K525 (protein, UniProt P42224 2-750, looked up)
Signal transducer and …: SQWYELQQLDSKFLEQVHQLYDDSFPMEIRQYLAQWLEKQDWEHAANDVSFATIRFHDLLSQLDDQYSRFSLENNFLLQHNIRKSKRNLQDNFQEDPIQMSMIIYSCLKEERKILENAQRFNQAQSGNIQSTVMLDKQKELDSKVRNVKDKVMCIEHEIKSLEDLQDEYDFKCKTLQNREHETNGVAKSDQKQEQLLLKKMYLMLDNKRKEVVHKIIELLNVTELTQNALINDELVEWKRRQQSACIGGPPNACLDQLQNWFTIVAESLQQVRQQLKKLEELEQKYTYEHDPITKNKQVLWDRTFSLFQQLIQSSFVVERQPCMPTHPQRPLVLKTGVQFTVKLRLLVKLQELNYNLKVKVLFDKDVNERNTVKGFRKFNILGTHTKVMNMEESTNGSLAAEFRHLQLKEQKNAGTRTNEGPLIVTEELHSLSFETQLCQPGLVIDLETTSLPVVVISNVSQLPSGWASILWYNMLVAEPRNLSFFLTPPCARWAQLSEVLSWQFSSVTKRGLNVDQLNMLGEKLLGPNASPDGLIPWTRFCKENINDKNFPFWLWIESILELIKKHLLPLWNDGCIMGFISKERERALLKDQQPGTFLLRFSESSREGAITFTWVERSQNGGEPDFHAVEPYTKKELSAVTFPDIIRNYKVMAAENIPENPLKYLYPNIDKDHAFGKYYSRPKEAPEPMELDGPKGTGYIKTELISVSEVHPSRLQTTDNLLPMSPEEFDEVSRIVGSVEFDSMMNTV
For B1, the “peptide spot methylation signal” value (SETD2 [4]) is listed as “did not show a detectable peptide methylation signal” and the “reported methylation by SETD2 compared with H3K36” value (SETD2 [5]) is listed as “weaker than H3K36”.
